In this data set the target is β subunit of DNA polymerase III of Escherichia coli, P0A988.
Chain of β subunit of DNA polymerase III of Escherichia coli, P0A988 (P0A988 whole entry): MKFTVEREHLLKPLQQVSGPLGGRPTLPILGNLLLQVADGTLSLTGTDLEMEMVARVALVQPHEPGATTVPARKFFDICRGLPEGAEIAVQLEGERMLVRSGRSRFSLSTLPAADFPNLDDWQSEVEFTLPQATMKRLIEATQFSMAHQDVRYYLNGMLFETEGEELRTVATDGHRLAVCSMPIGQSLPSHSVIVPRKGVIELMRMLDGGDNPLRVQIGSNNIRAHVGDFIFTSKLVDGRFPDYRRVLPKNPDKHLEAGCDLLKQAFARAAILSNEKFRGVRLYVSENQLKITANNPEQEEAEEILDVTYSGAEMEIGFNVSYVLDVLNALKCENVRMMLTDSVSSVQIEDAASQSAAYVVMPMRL

B1: Pol IV DNA polymerase of Escherichia coli (protein)
chain: MRKIIHVDMDCFFAAVEMRDNPALRDIPIAIGGSRERRGVISTANYPARKFGVRSAMPTGMALKLCPHLTLLPGRFDAYKEASNHIREIFSRYTSRIEPLSLDEAYLDVTDSVHCHGSATLIAQEIRQTIFNELQLTASAGVAPVKFLAKIASDMNKPNGQFVITPAEVPAFLQTLPLAKIPGVGKVSAAKLEAMGLRTCGDVQKCDLVMLLKRFGKFGRILWERSQGIDERDVNSERLRKSVGVERTMAEDIHHWSECEAIIERLYPELERRLAKVKPDLLIARQGVKLKFDDFQQTTQEHVWPRLNKADLIATARKTWDERRGGRGVRLVGLHVTLLDPQMERQLVLGL
With B1, the “growth rate (OD 600 nm) of E. coli on IPTG-induced expression” value is reported as “a clear growth inhibition was observed for the culture expressing the wild type Pol IV protein compared to the one expressing the mutant protein” and the “in vitro polymerase activity of Pol IV” value is “the in vitro activity of Pol IV is greatly enhanced by the presence of the β subunit loaded onto a primer/template DNA substrate”.

Source of the values: patent publication US20070275898.
